The target of the test is T1, hPD-L1-His (human, UniProt Q9NZQ7 19-238).
T1 construct: Bought protein; also called hPD-L1-His (manufactured by Edison); not shown: His tag
Put plainly: SPR (Biacore T200), antibody on Protein A chip, hPD-L1-His injected, 1:1 fit. Here is the method: Subsequently, the binding affinity of the anti-PD-L1 chimeric antibody, humanized antibody, and marketed control antibody to hPD-L1-His (manufactured by Edison) were determined by surface plasmon resonance (Biacore T200 biosensor, Biacore, INC, Piscataway N.J.) equipped with pre-immobilized Protein A sensor chips.
The detection results were read after the chip was regenerated with pH 2.0 glycine (30 μl/min, 10-20 s). Kinetic association rates (kon) and dissociation rates (koff) were obtained simultaneously by fitting the data globally to a 1:1 Langmuir binding model (Karlsson, R. Roos, H. Fagerstam, L. Petersson, B., 1994. Methods Enzymology 6. 99-110) using Biacore T200 Evaluation Software 3.0. Affinities were deduced from the quotient of the kinetic rate constants (KD=koff/kon).
Background: Surface plasmon resonance follows binding to a sensor surface in real time, without labels.

Positions count from the first letter of the chain named. Names and notes keep the numbering of the source.

T1 sequence (Q9NZQ7 19-238 limits assumed): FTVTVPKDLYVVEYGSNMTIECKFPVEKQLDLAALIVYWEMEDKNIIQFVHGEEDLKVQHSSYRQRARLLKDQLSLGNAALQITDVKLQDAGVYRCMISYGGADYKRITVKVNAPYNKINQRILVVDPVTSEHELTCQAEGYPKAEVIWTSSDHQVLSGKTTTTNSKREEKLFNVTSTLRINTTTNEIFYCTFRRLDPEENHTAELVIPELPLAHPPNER

B1: 3F2-H2K2-IgG1 (antibody, V domains shown)
VH: DVQLQESGPGLVKPSETLSLTCTVSGYSITSGYNWHWIRQFPGNGLEWMGYIHHSSITNYNPSLKSRITISRDTSKNQFSLKLSSVTAADTATFYCAREGYDYDWFAYWGQGTLVTVSS
VL: DIVLTQSPDFQSVTPKEKVTLSCRASQSISNNLHWYQQKPDESPKLLIKYASQSISGIPSRFSGSGSGTDFTLTINSVEAEDFAMYFCQQSKSWPFTFGQGTRLEIK
As usually defined, the Kd is the equilibrium constant for the complex coming apart. A lower Kd goes with higher affinity. A word on the koff: it is the rate constant with which the complex falls apart. A word on the kon: it is the rate constant with which the complex forms. Take B1: binding was put at a Kd of 0.81 nM, the koff was 0.000946 s⁻¹ and the kon stood at 1.17e+06 M⁻¹ s⁻¹.

B2: 3F2-H1K2-IgG1 (antibody, V domains shown)
VH: B1 VH with D1Q, F94Y
VL: B1 VL
In turn, B2 displayed a Kd of 0.69 nM, a koff of 0.000732 s⁻¹ and an on-rate constant (kon) of 1.06e+06 M⁻¹ s⁻¹.

B3: 3F2-H3K2-IgG1 (antibody, V domains shown)
VH: B1 VH with A89E
VL: B1 VL
For the molecule B3, binding was characterised by a dissociation constant (Kd) of 0.623 nM, the koff came to 0.000753 s⁻¹ and the kon came out at 1.21e+06 M⁻¹ s⁻¹.

B4: 3F2-H3K3-IgG1 (antibody, V domains shown)
VH: B1 VH with A89E
VL: B1 VL with F10T, K18S, P40S, D41H
B4 came in with a Kd of 0.625 nM, a koff of 0.000827 s⁻¹ and a kon of 1.32e+06 M⁻¹ s⁻¹.

B5: 3F2-H3K1-IgG1 (antibody, V domains shown)
VH: B1 VH with A89E
VL: B1 VL with L21I, S22T
Turning to B5, the equilibrium dissociation constant (Kd) stood at 0.699 nM, the koff was 0.000793 s⁻¹ and the kon was 1.13e+06 M⁻¹ s⁻¹.

B6: 3F2-H2K1-IgG1 (antibody, V domains shown)
VH: B1 VH
VL: B1 VL with L21I, S22T
In turn, B6 displayed a Kd of 0.7 nM, a koff of 0.000792 s⁻¹ and a kon of 1.13e+06 M⁻¹ s⁻¹.

B7: 3F2-H4K2-IgG1 (antibody, V domains shown)
VH: B1 VH with G45K, S80F, K82Q, A89E
VL: B1 VL
B7 returned a Kd of 0.475 nM, a koff of 0.000617 s⁻¹ and a kon of 1.3e+06 M⁻¹ s⁻¹.

B8: 3F2-H1K3-IgG1 (antibody, V domains shown)
VH: B1 VH with D1Q, F94Y
VL: B1 VL with F10T, K18S, P40S, D41H
As for B8, the Kd is 0.805 nM, the koff is 0.000874 s⁻¹ and the kon amounted to 1.09e+06 M⁻¹ s⁻¹.

B9: 3F2-H1K1-IgG1 (antibody, V domains shown)
VH: B1 VH with D1Q, F94Y
VL: B1 VL with L21I, S22T
Consider B9, for which the affinity, expressed as Kd, was 0.787 nM; the koff was 0.000772 s⁻¹; the kon was 981000 M⁻¹ s⁻¹.

B10: 3F2-H4K3-IgG1 (antibody, V domains shown)
VH: B1 VH with G45K, S80F, K82Q, A89E
VL: B1 VL with F10T, K18S, P40S, D41H
In turn, B10 returned a Kd of 0.502 nM, a koff of 0.000696 s⁻¹ and a kon of 1.39e+06 M⁻¹ s⁻¹.

B11: 3F2-H2K3-IgG1 (antibody, V domains shown)
VH: B1 VH
VL: B1 VL with F10T, K18S, P40S, D41H
For B11, the Kd amounted to 0.758 nM, the koff came out at 0.000881 s⁻¹ and the kon was 1.16e+06 M⁻¹ s⁻¹.

B12: 3F2-H4K1-IgG1 (antibody, V domains shown)
VH: B1 VH with G45K, S80F, K82Q, A89E
VL: B1 VL with L21I, S22T
In turn, B12 showed a dissociation constant Kd of 0.471 nM, a koff of 0.000626 s⁻¹ and an on-rate (kon) of 1.33e+06 M⁻¹ s⁻¹.

B13: 08-3F2-mHvKv-IgG1 (antibody, V domains shown)
VH: DVQLQESGPDLVKPSQTLSLTCTVTGYSITSGYNWHWIRQFPGNKLEWMGYIHHSSITNYNPSLKSRISITRDTSKNQFFLQLSSVTTEDTATFYCAREGYDYDWFAYWGQGTLVTVSA
VL: DIVLAQSPATLSVTPGDSVSLSCRASQSISNNLHWYQQKSHESPRLLIKYASQSISGIPSRFSGSGSGTDFTLSINSVETEDFGMYFCQQSKSWPFTFGSGTRLEIK
The molecule B13 displayed a dissociation constant Kd of 0.266 nM, a koff of 0.00043 s⁻¹ and a kon of 1.62e+06 M⁻¹ s⁻¹.

B14: 33-10C9-mHvKv-IgG1-N297A (antibody, V domains shown)
VH: QVQLQQPGAELVKPGSSVKLSCKASGYTFTTYYIYWVKQRPGQGLEWIGGINPYNGGTSFNEKFESKATLTVDISSSTAFMQLSSLTSEDSAVYYCTRDGNYVDYWGQGTTLTVSS
VL: QIVLTQSPAIMSASPGEKVTITCSASSTVSYVHWLQQKPDTSPKLWIYSTSNLASGVPARFSGSGSGTSYSLTISRMEAEDAATYYCQQRSSSPPTFGSGTKLEIK
In the case of B14, the affinity, expressed as Kd, was 1.6 nM; the koff amounted to 0.000196 s⁻¹; the association rate constant (kon) was 122000 M⁻¹ s⁻¹.

B15: 6A11-H2K3-IgG1 (antibody, V domains shown)
VH: EVQLVESGGGLVQPGGSLRLSCAASGFTFSSFGMHWVRQAPGKGLEWVSYISSGSNTIYYADTVKGRFTISRDNAKNSLYLQMNSLRAEDTAVYYCTRNGYDGWYAMDYWGQGTTVTVSS
VL: EIVLTQSPATLSASPGERATLSCSASSSVSYIHWFQQKPGQSPRRWIYDTSKLASGIPARFSGSGSGTDYTLTISSMEPEDFATYYCQQWSTNPFTFGQGTKLEIKR
B15: the Kd was 8.07 nM, the koff came out at 0.0013 s⁻¹ and the kon turned out to be 162000 M⁻¹ s⁻¹.

B16: 6A11-H1K3-IgG1 (antibody, V domains shown)
VH: B15 VH with T97A
VL: B15 VL
On to B16, for which the Kd was 7.8 nM, the koff was determined as 0.00113 s⁻¹ and the kon amounted to 145000 M⁻¹ s⁻¹.

B17: 07-6A11-mHvKv-IgG1 (antibody, V domains shown)
VH: DVQLVESGGGLVQPGGSRKLSCAASGFTFSSFGMHWVRQAPEKGLEWVAYISSGSNTIYYADTVKGRFTISRDNPKNTLFLQMTSLRSEDTAIYYCTRNGYDGWYAMDYWGQGTSVTVSS
VL: QIVLTQSPAIMSASPGEKVTMTCSASSSVSYIHWFQQKSGTSPKRWIYDTSKLASGVPARFSGRGSGTSYSLTISSMEAEDAATYYCQQWSTNPFTFGSGTKLEIK
As for B17, the dissociation constant (Kd) amounted to 3.57 nM, the koff is 0.0009 s⁻¹ and the kon is 252000 M⁻¹ s⁻¹.

B18: 23-2A6-mHvKv-IgG1-N297A (antibody, V domains shown)
VH: QVQLKESGPGLVAPSQSLSITCTVSGFSLTSYDISWIRQPPGKGLEWLGAIWTGGGTNYNSAFMSRLSISKDNSKSQVFLKMNSLQTDDTAIYYCVRDPYYYAMDYWGQGTSVTVSS
VL: DIQMNQSPSSLSASLGDTITITCHASQNLNVWLSWYQQKPGNIPKLLIYKASNLHTGVPSRFSGSGSGTGFTLTISSLQPEDIATYYCQQGQSYPRTFGGGTKLEIK
For the molecule B18, the affinity, expressed as Kd, was 4.64 nM; the koff amounted to 0.00266 s⁻¹; the kon was 573000 M⁻¹ s⁻¹.

B19: 17-7E4-mHvKv-IgG1 (antibody, V domains shown)
VH: QVQLQQSGAELVRPGVSVKISCKGSGFKFTDYAIHWVKQSHAKSLEWIGVISIYYGEASYNQKFKDKATLTVDTSSSTAYMELARLTSEDSAIYYCAREDYYGSSSYFDYWGQGTALTVSS
VL: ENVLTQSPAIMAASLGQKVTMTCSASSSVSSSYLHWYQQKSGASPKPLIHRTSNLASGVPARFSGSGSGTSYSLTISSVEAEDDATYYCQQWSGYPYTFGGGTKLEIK
Molecule B19 showed a Kd of 5.33 nM, an off-rate constant (koff) of 0.000805 s⁻¹ and an on-rate (kon) of 151000 M⁻¹ s⁻¹.

The values above are taken from patent publication US20220073621A1 (EUCURE BEIJING BIOPHARMA, published 2022).
